According to patent US20230235013A1 (MABSOLVE, published 2023):

T1: mouse FcRn (Sino Biological Cat. No. CT029-M08H) (mouse, UniProt Q61559 22-297; P01887 21-119)
T1 construct: Bought protein, captured on an anti-histidine chip
T1 sequence (looked up): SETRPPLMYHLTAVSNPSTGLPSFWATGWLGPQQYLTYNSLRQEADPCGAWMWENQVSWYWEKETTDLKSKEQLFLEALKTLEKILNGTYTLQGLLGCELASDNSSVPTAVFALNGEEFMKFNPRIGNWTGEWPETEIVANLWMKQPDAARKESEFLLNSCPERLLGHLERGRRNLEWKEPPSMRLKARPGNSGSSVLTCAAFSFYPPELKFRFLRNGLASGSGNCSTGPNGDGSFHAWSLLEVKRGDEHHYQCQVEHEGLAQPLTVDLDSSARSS
T1 sequence (b2m, looked up): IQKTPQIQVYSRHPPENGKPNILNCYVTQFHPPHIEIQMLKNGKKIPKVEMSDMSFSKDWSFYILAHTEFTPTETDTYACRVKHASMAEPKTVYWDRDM


Key:
[1] = molecular target: T2, Human C1q (Sigma Cat. No. 20476), HRP-labelled (human, UniProt P02745 23-245; P02746 28-253; P02747 29-245); assay: ELISA, antibody coated, HRP-C1q; Expt 3, buffer alone 0.102
T2 construct: Coupled to horse-radish peroxidase with Lightning-Link kit; also called HRP-labelled C1q

[2] = molecular target: T2, Human C1q (Sigma Cat. No. 20476), …; assay: ELISA, antibody coated, HRP-C1q; Expt 2, buffer alone 0.091
[3] = molecular target: T3, C-terminus biotinylated human FcRn attached to Streptavidin-SmBiT (FcRn-SAv-SmBiT) (human, UniProt P55899 24-297; P61769 21-119, limits assumed, C-terminus biotinylated (AviTag), attached to Streptavidin-SmBiT); assay: NanoBiT FcRn competition immunoassay, competitor Tracer-LgBiT human IgG, pH 6.0
T3 construct: Kit reagent; also called hFcRn-AviTag

[4] = molecular target: T2, Human C1q (Sigma Cat. No. 20476), …; assay: ELISA, antibody coated, HRP-C1q; Expt 1, buffer alone 0.053
[5] = molecular target: T4, human FcRn (R&D Systems Cat. No. 8639-Fc) (human, UniProt P55899 24-297; P61769 21-119); assay: SPR, FcRn captured; Expt 2
[6] = molecular target: T2, Human C1q (Sigma Cat. No. 20476), …; assay: ELISA, antibody coated, HRP-C1q; Expt 2, buffer alone 0.051
[7] = molecular target: T4, human FcRn (R&D Systems Cat. No. …); assay: SPR, FcRn captured; Expt 1
[8] = molecular target: T2, Human C1q (Sigma Cat. No. 20476), …; assay: ELISA, antibody coated, HRP-C1q; Expt 1, buffer alone 0.061
[9] = molecular target: T4, human FcRn (R&D Systems Cat. No. …); assay: SPR, FcRn captured; Mean
[10] = molecular target: T4, human FcRn (R&D Systems Cat. No. …); assay: SPR, FcRn captured; Expt 3
[11] = molecular target: T1, mouse FcRn (Sino Biological Cat. No. …); assay: SPR, FcRn captured via anti-His, pH 6.0;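 further: SPR binding signal relative to the reference cell, corrected by subtracting the response of a blank sample of running buffer alone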
[12] = molecular target: T4, human FcRn (R&D Systems Cat. No. …); assay: SPR, FcRn captured via anti-His, pH 6.0;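 further: SPR binding signal relative to the reference cell, corrected by subtracting the response of a blank sample of running buffer alone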
[13] = molecular target: T5, cynomolgus monkey FcRn (Sino Biological Cat. No. CT031-C08H) (cynomolgus monkey, UniProt Q8SPV9 24-297; Q8SPW0 21-119); assay: SPR, FcRn captured via anti-His, pH 6.0;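 further: SPR binding signal relative to the reference cell, corrected by subtracting the response of a blank sample of running buffer alone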
T5 construct: Bought protein, captured on an anti-histidine chip; also called cynomolgus FcRn

Mean Absorbance [1] | Mean Absorbance [2] | Mean binding activity (% of wild-type reference) [3] | Mean Absorbance [4] | Corrected and normalised response (% of wild-type reference) [5] | Mean Absorbance [6] | Corrected and normalised response (% of wild-type reference) [7] | Mean Absorbance [8] | Corrected and normalised response (% of wild-type reference) [9] | Corrected and normalised response (% of wild-type reference) [10] | Corrected response (RU) [11] [RU] | Corrected response (RU) [12] [RU] | Corrected response (RU) [13] [RU] | Binder
1.88 absorbance (450 nm) | 2.21 absorbance (450 nm) | 100 % of wild-type reference | 1.83 absorbance (450 nm) | 100 % of wild-type reference | 1.33 absorbance (450 nm) | 100 % of wild-type reference | 2.63 absorbance (450 nm) | 100 % of wild-type reference | 100 % of wild-type reference | 178 | 582 | 1320 | anti-CD20 (rituximab) human IgG1 wild-type reference (antibody, 2-1 and 10.0 are separate preparations of the same antibody; also called 2-1; 10.0; copies: 2 + 2) heavy: not shown light: QIVLSQSPAILSASPGEKVTMTCRASSSVSYIHWFQQKPGSSPKPWIYATSNLASGVPVRFSGSGSGTSYSLTISRVEAEDAATYYCQQWTSNPPTFGGGTKLEIKRTVAAPSVFIFPPSDEQLKSGTASVVCLLNNFYPREAKVQWKVDNALQSGNSQESVTEQDSKDSTYSLSSTLTLSKADYEKHKVYACEVTHQGLSSPVTKSFNRGEC
0.083 absorbance (450 nm) | 0.079 absorbance (450 nm) | 98.6 % of wild-type reference |  | 97.9 % of wild-type reference |  | 98.3 % of wild-type reference | 0.047 absorbance (450 nm) | 96.6 % of wild-type reference | 93.7 % of wild-type reference |  |  |  | anti-CD20 (rituximab) human IgG1 L234S/L235T/G236R (antibody, EU numbering; also called 2-52; 1-150; copies: 2 + 2) heavy: QVQLQQPGAELVKPGASVKMSCKASGYTFTSYNMHWVKQTPGRGLEWIGAIYPGNGDTSYNQKFKGKATLTADKSSSTAYMQLSSLTSEDSAVYYCARSTYYGGDWYFNVWGAGTTVTVSSASTKGPSVFPLAPSSKSTSGGTAALGCLVKDYFPEPVTVSWNSGALTSGVHTFPAVLQSSGLYSLSSVVTVPSSSLGTQTYICNVNHKPSNTKVDKKVEPKSCDKTHTCPPCPAPESTRGPSVFLFPPKPKDTLMISRTPEVTCVVVDVSHEDPEVKFNWYVDGVEVHNAKTKPREEQYNSTYRVVSVLTVLHQDWLNGKEYKCKVSNKALPAPIEKTISKAKGQPREPQVYTLPPSRDELTKNQVSLTCLVKGFYPSDIAVEWESNGQPENNYKTTPPVLDSDGSFFLYSKLTVDKSRWQQGNVFSCSVMHEALHNHYTQKSLSLSPGK light: QIVLSQSPAILSASPGEKVTMTCRASSSVSYIHWFQQKPGSSPKPWIYATSNLASGVPVRFSGSGSGTSYSLTISRVEAEDAATYYCQQWTSNPPTFGGGTKLEIKRTVAAPSVFIFPPSDEQLKSGTASVVCLLNNFYPREAKVQWKVDNALQSGNSQESVTEQDSKDSTYSLSSTLTLSKADYEKHKVYACEVTHQGLSSPVTKSFNRGEC
0.064 absorbance (450 nm) | 0.091 absorbance (450 nm) | 77.8 % of wild-type reference |  | 96 % of wild-type reference |  | 97.1 % of wild-type reference | 0.052 absorbance (450 nm) | 96.3 % of wild-type reference | 95.7 % of wild-type reference |  |  |  | anti-CD20 (rituximab) human IgG1 L234G/L235S/G236R (antibody, EU numbering; also called 2-19; 1-59; copies: 2 + 2) heavy: QVQLQQPGAELVKPGASVKMSCKASGYTFTSYNMHWVKQTPGRGLEWIGAIYPGNGDTSYNQKFKGKATLTADKSSSTAYMQLSSLTSEDSAVYYCARSTYYGGDWYFNVWGAGTTVTVSSASTKGPSVFPLAPSSKSTSGGTAALGCLVKDYFPEPVTVSWNSGALTSGVHTFPAVLQSSGLYSLSSVVTVPSSSLGTQTYICNVNHKPSNTKVDKKVEPKSCDKTHTCPPCPAPEGSRGPSVFLFPPKPKDTLMISRTPEVTCVVVDVSHEDPEVKFNWYVDGVEVHNAKTKPREEQYNSTYRVVSVLTVLHQDWLNGKEYKCKVSNKALPAPIEKTISKAKGQPREPQVYTLPPSRDELTKNQVSLTCLVKGFYPSDIAVEWESNGQPENNYKTTPPVLDSDGSFFLYSKLTVDKSRWQQGNVFSCSVMHEALHNHYTQKSLSLSPGK light: QIVLSQSPAILSASPGEKVTMTCRASSSVSYIHWFQQKPGSSPKPWIYATSNLASGVPVRFSGSGSGTSYSLTISRVEAEDAATYYCQQWTSNPPTFGGGTKLEIKRTVAAPSVFIFPPSDEQLKSGTASVVCLLNNFYPREAKVQWKVDNALQSGNSQESVTEQDSKDSTYSLSSTLTLSKADYEKHKVYACEVTHQGLSSPVTKSFNRGEC
0.095 absorbance (450 nm) | 0.077 absorbance (450 nm) | 150 % of wild-type reference |  | 95.1 % of wild-type reference |  | 96 % of wild-type reference | 0.068 absorbance (450 nm) | 93 % of wild-type reference | 88.1 % of wild-type reference |  |  |  | anti-CD20 (rituximab) human IgG1 L234T/L235T/G236R (antibody, EU numbering; also called 2-63; 1-165; copies: 2 + 2) heavy: QVQLQQPGAELVKPGASVKMSCKASGYTFTSYNMHWVKQTPGRGLEWIGAIYPGNGDTSYNQKFKGKATLTADKSSSTAYMQLSSLTSEDSAVYYCARSTYYGGDWYFNVWGAGTTVTVSSASTKGPSVFPLAPSSKSTSGGTAALGCLVKDYFPEPVTVSWNSGALTSGVHTFPAVLQSSGLYSLSSVVTVPSSSLGTQTYICNVNHKPSNTKVDKKVEPKSCDKTHTCPPCPAPETTRGPSVFLFPPKPKDTLMISRTPEVTCVVVDVSHEDPEVKFNWYVDGVEVHNAKTKPREEQYNSTYRVVSVLTVLHQDWLNGKEYKCKVSNKALPAPIEKTISKAKGQPREPQVYTLPPSRDELTKNQVSLTCLVKGFYPSDIAVEWESNGQPENNYKTTPPVLDSDGSFFLYSKLTVDKSRWQQGNVFSCSVMHEALHNHYTQKSLSLSPGK light: QIVLSQSPAILSASPGEKVTMTCRASSSVSYIHWFQQKPGSSPKPWIYATSNLASGVPVRFSGSGSGTSYSLTISRVEAEDAATYYCQQWTSNPPTFGGGTKLEIKRTVAAPSVFIFPPSDEQLKSGTASVVCLLNNFYPREAKVQWKVDNALQSGNSQESVTEQDSKDSTYSLSSTLTLSKADYEKHKVYACEVTHQGLSSPVTKSFNRGEC
0.083 absorbance (450 nm) | 0.076 absorbance (450 nm) | 34.1 % of wild-type reference |  | 78.7 % of wild-type reference |  | 78.4 % of wild-type reference |  | 77.9 % of wild-type reference | 76.6 % of wild-type reference | 163 | 421 | 1010 | anti-CD20 (rituximab) human IgG1 N297Q (aglycosyl) (antibody, EU numbering; also called 2-67; copies: 2 + 2) heavy: not shown light: QIVLSQSPAILSASPGEKVTMTCRASSSVSYIHWFQQKPGSSPKPWIYATSNLASGVPVRFSGSGSGTSYSLTISRVEAEDAATYYCQQWTSNPPTFGGGTKLEIKRTVAAPSVFIFPPSDEQLKSGTASVVCLLNNFYPREAKVQWKVDNALQSGNSQESVTEQDSKDSTYSLSSTLTLSKADYEKHKVYACEVTHQGLSSPVTKSFNRGEC
0.08 absorbance (450 nm) | 0.078 absorbance (450 nm) | 70.1 % of wild-type reference |  | 94.2 % of wild-type reference |  | 92.8 % of wild-type reference |  | 93.3 % of wild-type reference | 92.9 % of wild-type reference | 190 | 505 | 1180 | anti-CD20 (rituximab) human IgG1 L234A/L235A (LALA) (antibody, EU numbering; also called 2-65; 10.16; copies: 2 + 2) heavy: not shown light: QIVLSQSPAILSASPGEKVTMTCRASSSVSYIHWFQQKPGSSPKPWIYATSNLASGVPVRFSGSGSGTSYSLTISRVEAEDAATYYCQQWTSNPPTFGGGTKLEIKRTVAAPSVFIFPPSDEQLKSGTASVVCLLNNFYPREAKVQWKVDNALQSGNSQESVTEQDSKDSTYSLSSTLTLSKADYEKHKVYACEVTHQGLSSPVTKSFNRGEC
